According to article PMC2690642 (Journal of neurochemistry, 2008):

B1: regulatory (R) domain of the N-methyl-D-aspartate receptor NR2A subunit, NR2A(23-389) (domain or fragment)
chain: not shown
B2: regulatory (R) domain of the N-methyl-D-aspartate receptor NR2B subunit, NR2B(27-390) (domain or fragment)
chain: not shown

How the values were obtained:
[1] = biological target: B1; assay: co-IP
[2] = biological target: B2; assay: co-IP
SEC = biological target: the molecule itself; assay: SEC

Row | binding result [1] | binding result [2] | Binder | percentage of the monomer form (SEC) [%]
1 | binds | binds | regulatory (R) domain of the N-methyl-D-aspartate receptor NR1 subunit, NR1(19-380) (domain or fragment) not shown | 37
2 |  |  | B1 | 73
3 |  |  | B2 | 71
